Assay results as given in US20170260241A1 (KEMYTH BIOTECH, published 2017).

B1: C70PLY4 (C-terminal 70 amino acid fragment of pneumolysin, 402-471 amino acid residues) (peptide)
peptide: QDLTAHFTTSIPLKGNVRNLSVKIRECTGLAWEWWRTVYEKTDLPLVRKRTISIWGTTLYPQVEDKVEND

Tests used:
recombinant TLR4 protein [1] = molecular target: T1, recombinant TLR4 protein; assay: competition ELISA: TLR4 coated (2 µg/mL), MD2 (50 nM) mixed with titrated peptide, residual bound MD2 detected with anti-MD2 and anti-mouse IgG-HRP, OD450; competed ligand: MD2
T1 construct: also called Toll-like receptor 4

recombinant TLR4 protein [2] = molecular target: T1, recombinant TLR4 protein; assay: competition ELISA: peptide titrated from 50 µM to 3.05 nM against MD2 (50 nM) on plate-coated TLR4; competitor MD2

| Binder | IC50 (read off the curve) (recombinant TLR4 protein [1]) [nM] | Ki (recombinant TLR4 protein [2]) [nM] |
| --- | --- | --- |
| B1 | ~300 | 74.8 |
| QDLTAHFTTSIPLKGNVRNLSVKIRECTGLAWEWW [N35PLY4 (N-terminal 35 amino acid fragment of C70PLY4, 402-436 amino acid residues)] |  | 11200 |
